Source: patent US11643691B2, “Predictive biomarkers for cancer immunotherapy and methods of using same” (Duke University, priority 2018, dated 2023)

Tests used:
[1] = tested on: DCs; experiment: Extracellular acidification rate (ECAR), Seahorse XFe24 flux analysis of DCs; format: cell-based, Murine
Protocol: (§1) Dendritic Cell Conditioning: DCs were treated with Wnt3a (100 ng/mL), Wnt5a (200 ng/mL), LPS (1 μg/mL), 1-MT (1 mM), 2DG (1 mM), or ETO (100 μM), 2-DG(2-deoxy-d-glucose, 1 mM), Oligomycin (1 μM), succinylacetone (250 μM), or vehicle control either for 24 or 48 hrs prior to their use in both in vitro and in vivo experiments.
Cellular Energy Metabolism Analysis: DC energy metabolism was measured using the XFe24 extracellular flux analyzer (Seahorse Bioscience), with the glycolysis stress test kit and the mitochondrial stress test kit as previously described (Everts et al., 2014, Zhao and Klimecki, 2015). For experiments involving LPS injection, DCs were plated in XFe24 plates (200,000/well in 500p1) and treated with LPS for 48 hours prior to XF analysis. DCs were washed and analyzed in XF media (RPMI without sodium bicarbonate, 10 mM glucose, 1% FBS, 2 mM L-glutamine). ECAR was analyzed in real-time with or without LPS stimulation. For experiments involving BrafV600EPten−/− cell line-derived conditioned media (CM), collected CM was concentrated and desalted with an Amicon Ultra 30K filter according to manufacturer's recommendations (Milipore). Final concentrate was further washed with XF media 3 times, added to DCs immediately prior to OCR analysis. For standard ECAR analysis, XF media (without glucose) was used to wash cells prior to the assay. A final concentration of 10 mM glucose, 1 μM oligomycin, 50 mM 2-DG(sigma) were injected through XFe24 port A-C. For standard OCR analysis, XF media (with 10 mM glucose) was used to wash cells, a final concentration of 1 μM oligomycin, 1.5 μM FCCP (fluoro-carbonyl cyanide phenylhydrazone), 100 nM rotenone, and 1 μM of antimycin-A (Sigma) were injected through XFe24 port A-C.

[2] = tested on: CD8+ T cell proliferation; experiment: T cell proliferation assay (CellTrace Violet dilution, OT-1 splenocytes with conditioned DCs); format: cell-based, mice; details: DCs pre-treated, LPS stimulated
Protocol: T Cell Proliferation Assay: Splenocytes of OT-1 mice (H-2b) were isolated and stained with CellTrace Violet (ThermoFisher). Preconditioned DCs were loaded with ovalbumin peptide SIINFEKL, and co-cultured at a DC:splenocyte ratio of 40,000:120,000 cells for 72 hrs. CD8+ T cell proliferation was measured by the dilution of Cell Trace Violet dye by flow cytometry.

[3] = tested on: CD4+FoxP3+ Treg cells; experiment: In vitro Treg cell assay (conditioned DCs with naive CD4+ T cells); format: cell-based, mice; details: treated DCs co-cultured with naive CD4+ T cells
Protocol: as §1
Treg Cell Assays: For in vivo Treg cell assays, DCs (C57, H-2b) were pre-treated for 48 hours and delivered by intradermal injection into the footpad of Foxp3-mRFP mice. Draining inguinal and popliteal lymph nodes were resected 5 days later and analyzed for CD4+Foxp3+ Treg cells. For in vitro Treg cell assays, DCs (Balb/c, H-2d) were pre-treated for either 24 or 48 hrs, and re-plated at a 1:3 DC:T-cell ratio with purified allogeneic naive Foxp3-mRFP(H-2b) CD44loCD62LhiCD4+ Tcells. These co-cultures were incubated for 6 days and quantitated for CD4+FoxP3+ Treg cells by flow cytometry.

[4] = tested on: DCs; experiment: Flow cytometry of DC surface maturation markers; format: cell-based, Murine
Protocol: Flow Cytometry: One million cells were stained with 1 μg per million cells of each fluorochrome conjugated antibodies or commercially available dyes according to the standard protocols and analyzed using a FACSCanto II or LSRII (Becton Dickinson).

[5] = tested on: Akt; experiment: Akt Thr-308 phosphorylation immunoblot of DCs; format: cell-based, Murine; details: Wnt5a 200 ng/mL, 48 hrs
Description: Data is representative of 3 independent experiments. […] Data is representative of 3 independent experiments. […] Antibodies, Immunoprecipitation, and Immunoblot Analysis: Primary antibodies including CPT1A (Cell signaling), PPAR-γ (Santa Cruz Biotechnology), β-catenin, β-actin (Millipore), p-AMPK(T172)/AMPK (Cell signaling), p-AKT(T308)/Akt (Cell Signaling) were used at 1:1000. Secondary antibodies including goat anti-rabbit IgG-HRP (Millipore) and goat anti-mouse IgG-HRP (Millipore) were used at 1:5000. Cells were lysed in Laemmli sample buffer after treatment and subjected to SDS-polyacrylamide gel electrophoresis and immunoblot analysis. For immunoprecipitation, cells were lysed in radio immunoprecipitation assay (RIPA) buffer [10 mM sodium phosphate (pH 8.0), 150 mM NaCl, 1% Triton X-100, 1% sodium deoxycholate, and 0.1% SDS in the presence of 1 mM DTT, 1 mM phenylmethylsulfonylfluoride, and a protease inhibitor cocktail (Sigma)], precleared with protein A beads, and then incubated with 1 μg of antibody against β-catenin or isotype control IgG with protein A-agarose beads on a rotator overnight at 4° C. After 3 washes with RIPA buffer, immunoprecipitated complexes were eluted in sample buffer by boiling and subjected to immunoblot analysis. Immunoblots were visualized by chemiluminescence substrate (ThermoFisher) and imaged by a ChemiDoc XRSplus system (BioRad).

B1: Wnt5a: Recombinant Human/Mouse Wnt5a Protein (R&D Systems) (protein, UniProt P41221 62-380, looked up)
Protein Wnt-5a: IIGAQPLCSQLAGLSQGQKKLCHLYQDHMQYIGEGAKTGIKECQYQFRHRRWNCSTVDNTSVFGRVMQIGSRETAFTYAVSAAGVVNAMSRACREGELSTCGCSRAARPKDLPRDWLWGGCGDNIDYGYRFAKEFVDARERERIHAKGSYESARILMNLHNNEAGRRTVYNLADVACKCHGVSGSCSLKTCWLQLADFRKVGDALKEKYDSAAAMRLNSRGKLVQVNSRFNSPTTQDLVYIDPSPDYCVRNESTGSLGTQGRLCNKTSEGMDGCELMCCGRGYDQFKTVQTERCHCKFHWCCYVKCKKCTEIVDQFVCK
LPS-induced glycolytic surge (ECAR) ([1]; DCs pre-treated): suppressed the lipopolysaccharide (LPS)-induced glycolytic surge
glycolysis (ECAR) acutely after stimulation ([1]; within 90 min of stimulation): failed to impact glycolysis
LPS-induced DC-mediated antigen-specific T cell proliferation [2]: suppresses LPS-induced DC-mediated antigen-specific T cell proliferation
DC-mediated Treg cell differentiation in vitro [3]: enhanced Treg cell differentiation in vitro
DC surface maturation markers / co-stimulatory receptors [4]: absence of any alterations in DC surface maturation markers
DC Akt Thr-308 phosphorylation [5]: no impact
